Test results taken from IntAct's records for PubMed 22575644.

B1: Serine/threonine-protein kinase STK11 (Homo sapiens), Q15831 (parent)
chain: MEVVDPQQLGMFTEGELMSVGMDTFIHRIDSTEVIYQPRRKRAKLIGKYLMGDLLGEGSYGKVKEVLDSETLCRRAVKILKKKKLRRIPNGEANVKKEIQLLRRLRHKNVIQLVDVLYNEEKQKMYMVMEYCVCGMQEMLDSVPEKRFPVCQAHGYFCQLIDGLEYLHSQGIVHKDIKPGNLLLTTGGTLKISDLGVAEALHPFAADDTCRTSQGSPAFQPPEIANGLDTFSGFKVDIWSAGVTLYNITTGLYPFEGDNIYKLFENIGKGSYAIPGDCGPPLSDLLKGMLEYEPAKRFSIRQIRQHSWFRKKHPPAEAPVPIPPSPDTKDRWRSMTVVPYLEDLHGADEDEDLFDIEDDIIYTQDFTVPGQVPEEEASHNGQRRGLPKAVCMNGTEAAQLSTKSRAEGRAPNPARKACSASSKIRRLSACKQQ
partner: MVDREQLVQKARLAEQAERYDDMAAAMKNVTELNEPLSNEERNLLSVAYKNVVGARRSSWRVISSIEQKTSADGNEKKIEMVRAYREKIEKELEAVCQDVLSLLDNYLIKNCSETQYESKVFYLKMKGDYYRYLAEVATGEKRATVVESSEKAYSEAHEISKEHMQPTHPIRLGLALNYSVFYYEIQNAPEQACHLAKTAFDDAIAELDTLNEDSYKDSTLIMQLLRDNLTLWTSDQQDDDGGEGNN
B2: Serine/threonine-protein kinase STK11 (Homo sapiens), Q15831 (parent)
chain: B1 chain
partner: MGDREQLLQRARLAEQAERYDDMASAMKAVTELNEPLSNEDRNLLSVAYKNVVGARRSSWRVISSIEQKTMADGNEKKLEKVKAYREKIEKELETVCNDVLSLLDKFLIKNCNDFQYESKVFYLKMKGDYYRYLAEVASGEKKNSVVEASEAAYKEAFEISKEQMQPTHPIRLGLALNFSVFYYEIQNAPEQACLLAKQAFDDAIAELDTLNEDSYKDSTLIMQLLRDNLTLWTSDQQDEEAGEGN
B3: Serine/threonine-protein kinase STK11 (Homo sapiens), Q15831 (parent)
chain: B1 chain
B4: 14-3-3 protein zeta/delta (Homo sapiens), P63104 (parent)
chain: MDKNELVQKAKLAEQAERYDDMAACMKSVTEQGAELSNEERNLLSVAYKNVVGARRSSWRVVSSIEQKTEGAEKKQQMAREYREKIETELRDICNDVLSLLEKFLIPNASQAESKVFYLKMKGDYYRYLAEVAAGDDKKGIVDQSQQAYQEAFEISKKEMQPTHPIRLGLALNFSVFYYEILNSPEKACSLAKTAFDEAIAELDTLSEESYKDSTLIMQLLRDNLTLWTSDTQGDEAEAGEGGEN
partner: B1 chain

Variants of: B1
Details: with 1433g_human YWHAG

Variant | effect of a mutation on the interaction
MEVVDPQQLGMFTEGELMSVGMDTFIHRIDSTEVIYQPRRKRAKLIGKYLMGDLLGEGSYGKVKEVLDSETLCRRAVKILKKKKLRRIPNGEANVKKEIQLLRRLRHKNVIQLVDVLYNEEKQKMYMVMEYCVCGMQEMLDSVPEKRFPVCQAHGYFCQLIDGLEYLHSQGIVHKDIKPGNLLLTTGGTLKISDLGVAEALHPFAADDTCRTSQGSPAFQPPEIANGLDTFSGFKVDIWSAGVTLYNITTGLYPFEGDNIYKLFENIGKGSYAIPGDCGPPLSDLLKGMLEYEPAKRFSIRQIRQHSWFRKKHPPAEAPVPIPPSPDTKDRWRSMAVVPYLEDLHGADEDEDLFDIEDDIIYTQDFTVPGQVPEEEASHNGQRRGLPKAVCMNGTEAAQLSTKSRAEGRAPNPARKACSASSKIRRLSACKQQ [T336A] | disrupting interaction

Variants of: B2
Details: with 1433f_human YWHAH

Variant | effect of a mutation on the interaction
MEVVDPQQLGMFTEGELMSVGMDTFIHRIDSTEVIYQPRRKRAKLIGKYLMGDLLGEGSYGKVKEVLDSETLCRRAVKILKKKKLRRIPNGEANVKKEIQLLRRLRHKNVIQLVDVLYNEEKQKMYMVMEYCVCGMQEMLDSVPEKRFPVCQAHGYFCQLIDGLEYLHSQGIVHKDIKPGNLLLTTGGTLKISDLGVAEALHPFAADDTCRTSQGSPAFQPPEIANGLDTFSGFKVDIWSAGVTLYNITTGLYPFEGDNIYKLFENIGKGSYAIPGDCGPPLSDLLKGMLEYEPAKRFSIRQIRQHSWFRKKHPPAEAPVPIPPSPDTKDRWRSMAVVPYLEDLHGADEDEDLFDIEDDIIYTQDFTVPGQVPEEEASHNGQRRGLPKAVCMNGTEAAQLSTKSRAEGRAPNPARKACSASSKIRRLSACKQQ [T336A] | disrupting interaction

Variants of: B3
Details: with 1433z_human YWHAZ

Variant | effect of a mutation on the interaction
MEVVDPQQLGMFTEGELMSVGMDTFIHRIDSTEVIYQPRRKRAKLIGKYLMGDLLGEGSYGKVKEVLDSETLCRRAVKILKKKKLRRIPNGEANVKKEIQLLRRLRHKNVIQLVDVLYNEEKQKMYMVMEYCVCGMQEMLDSVPEKRFPVCQAHGYFCQLIDGLEYLHSQGIVHKDIKPGNLLLTTGGTLKISDLGVAEALHPFAADDTCRTSQGSPAFQPPEIANGLDTFSGFKVDIWSAGVTLYNITTGLYPFEGDNIYKLFENIGKGSYAIPGDCGPPLSDLLKGMLEYEPAKRFSIRQIRQHSWFRKKHPPAEAPVPIPPSPDTKDRWRSMAVVPYLEDLHGADEDEDLFDIEDDIIYTQDFTVPGQVPEEEASHNGQRRGLPKAVCMNGTEAAQLSTKSRAEGRAPNPARKACSASSKIRRLSACKQQ [T336A] | disrupting interaction

Variants of: B4
Details: with stk11_human STK11, Q15831

Variant | effect of a mutation on the interaction
MDKNELVQKAKLAEQAERYDDMAACMKSVTEQGAELSNEERNLLSVAYENVVGARRSSWRVVSSIEQKTEGAEKKQQMAREYREKIETELRDICNDVLSLLEKFLIPNASQAESKVFYLKMKGDYYRYLAEVAAGDDKKGIVDQSQQAYQEAFEISKKEMQPTHPIRLGLALNFSVFYYEILNSPEKACSLAKTAFDEAIAELDTLSEESYKDSTLIMQLLRDNLTLWTSDTQGDEAEAGEGGEN [K49E] | disrupting interaction
